According to patent US7271245B2, “Methods and compositions for inhibition of metastasis” (The Scripps Research Institute, priority 2004, dated 2007):

What was measured:
activated integrin αvβ3 = target: T1, activated integrin αvβ3 (Homo sapiens, UniProt P05106+P06756); test: Flow cytometry, scFv binding to MDA-MB 435 variants and patient metastatic breast cancer cells
T1 construct: endogenous in cells; host or cells: MDA-MB 435 variants (Parent Combo, Bone, Lung) and patient blood-derived BMS cells; also β3-negative cells re-transfected with β3WT or β3D723R cDNA
T1 sequence (P06756 31-889 limits assumed): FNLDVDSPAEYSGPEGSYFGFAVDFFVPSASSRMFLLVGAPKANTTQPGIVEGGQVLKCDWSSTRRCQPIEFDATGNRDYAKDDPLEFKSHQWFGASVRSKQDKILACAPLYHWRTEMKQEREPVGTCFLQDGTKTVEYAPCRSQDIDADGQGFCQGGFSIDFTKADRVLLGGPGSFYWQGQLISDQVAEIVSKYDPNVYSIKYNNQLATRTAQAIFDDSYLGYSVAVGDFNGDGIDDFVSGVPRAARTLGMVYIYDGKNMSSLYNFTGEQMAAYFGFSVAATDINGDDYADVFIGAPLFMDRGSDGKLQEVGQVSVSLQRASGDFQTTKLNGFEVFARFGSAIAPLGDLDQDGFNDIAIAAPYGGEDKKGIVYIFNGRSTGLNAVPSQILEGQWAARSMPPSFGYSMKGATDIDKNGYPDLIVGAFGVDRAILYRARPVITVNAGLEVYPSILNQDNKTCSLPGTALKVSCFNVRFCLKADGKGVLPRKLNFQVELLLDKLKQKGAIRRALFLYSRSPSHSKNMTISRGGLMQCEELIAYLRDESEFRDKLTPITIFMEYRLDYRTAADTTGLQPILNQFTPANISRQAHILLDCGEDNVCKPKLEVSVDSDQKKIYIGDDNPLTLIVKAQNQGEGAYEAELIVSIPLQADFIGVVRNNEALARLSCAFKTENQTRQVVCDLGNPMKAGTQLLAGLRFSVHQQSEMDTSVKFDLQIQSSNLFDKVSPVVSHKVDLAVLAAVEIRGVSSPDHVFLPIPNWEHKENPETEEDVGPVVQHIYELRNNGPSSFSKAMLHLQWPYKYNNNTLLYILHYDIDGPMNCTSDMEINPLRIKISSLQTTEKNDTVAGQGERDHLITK
T1 sequence (P06756 891-1048 limits assumed): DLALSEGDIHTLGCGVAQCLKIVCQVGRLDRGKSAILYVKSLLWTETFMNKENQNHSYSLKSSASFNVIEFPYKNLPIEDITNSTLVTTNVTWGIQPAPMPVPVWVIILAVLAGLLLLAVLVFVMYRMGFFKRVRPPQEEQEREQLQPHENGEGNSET
T1 sequence (P05106 27-788): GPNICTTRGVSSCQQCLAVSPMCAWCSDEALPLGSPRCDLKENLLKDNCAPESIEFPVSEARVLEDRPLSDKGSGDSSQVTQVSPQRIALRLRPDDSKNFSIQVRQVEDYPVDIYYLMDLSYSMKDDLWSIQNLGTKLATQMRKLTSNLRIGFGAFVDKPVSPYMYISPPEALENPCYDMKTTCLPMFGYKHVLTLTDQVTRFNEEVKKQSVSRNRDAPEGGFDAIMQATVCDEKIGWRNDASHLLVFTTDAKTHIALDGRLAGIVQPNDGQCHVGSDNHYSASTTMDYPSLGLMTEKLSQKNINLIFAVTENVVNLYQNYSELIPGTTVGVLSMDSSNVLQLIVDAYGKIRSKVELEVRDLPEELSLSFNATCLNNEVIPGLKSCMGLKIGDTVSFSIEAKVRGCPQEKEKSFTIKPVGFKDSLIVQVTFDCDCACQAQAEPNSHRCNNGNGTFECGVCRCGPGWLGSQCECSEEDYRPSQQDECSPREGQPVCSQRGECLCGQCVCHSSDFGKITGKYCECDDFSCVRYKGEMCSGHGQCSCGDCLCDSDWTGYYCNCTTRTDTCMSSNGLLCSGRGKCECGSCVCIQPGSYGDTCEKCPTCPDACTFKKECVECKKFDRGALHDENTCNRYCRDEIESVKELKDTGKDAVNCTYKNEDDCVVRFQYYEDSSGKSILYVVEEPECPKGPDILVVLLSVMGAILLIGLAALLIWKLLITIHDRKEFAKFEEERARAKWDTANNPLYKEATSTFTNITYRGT
Protocol: FIGS. 1A, 1B, 1C. Patient derived scFvs Bc-12 and Bc-15 recognize tumor cell integrin αvβ3 in a cation and activation dependent manner. Flow cytometric analyses in TBS with or without 1 mM Ca^2+, 1 mM Mg^2+, or 0.2 mM Mn^2+ as indicated. Binding of soluble scFv detected after incubation with anti-Flag M2 murine mAb followed by FITC-anti mouse F(ab′)2. (A) scFv binding to human melanoma cells (M21: αvβ3 plus other αv integrins) (M21-LIIb: αIIbβ3, no αv integrins) or lung adenocarcinoma cells (UCLA-P3: αv integrins, no β3 integrin). (B) scFv binding to M21 melanoma cells. (C) scFv binding to variants of MDA-MB 435 human breast cancer cells that lack (β^3−) or express αvβ3 either in a non-activated (β3WT, ParentCo) or activated form (β3D723R, Bone, Lung, and BMS metastatic cancer cells isolated from breast cancer patient blood).
FIGS. 2A, 2B, 2C, 2D. Translation of scFv DNA sequence analyses. (A) Consensus amino acid sequence (SEQ ID NO: 9) of Bc-12 (SEQ ID NO: 7) and Bc-15 (SEQ ID NO: 8) (specific for activated αvβ3) compared to Bc-20 (specific for αv) (SEQ ID NO: 10). (B) scFv binding to BMS human breast cancer cells by flow cytometry, indicating loss of Bc-12 and Bc-15 binding when CDR-H3 RGD is mutated to RGE (Mut-12 and Mut-15). […] (C) cDNA sequences for scFv Bc-12 (SEQ ID NO: 1) and scFv Bc-15 (SEQ ID NO: 3). The cDNA encoding scFv Bc-12 has an ATCC accession number PTA-6303, date of deposit: Nov. 12, 2004. The cDNA encoding scFv Bc-15 has an ATCC accession number PTA-6304, date of deposit: Nov. 12, 2004. (D) cDNA sequences for scFv Mut-12 (SEQ ID NO: 5) and scFv Mut-15 (SEQ ID NO: 6). scFv Mut-12 is the RGE containing mutant version of scFv Bc-12. scFv Mut-15 is the RGE containing mutant version of scFv Bc-15.
Flow cytometry. scFv binding to human tumor cells was analyzed by flow cytometry, initially with cloned scFv phage and then with purified scFv protein. Per sample, 2×10^5 tumor cells were blocked with goat serum and incubated either with scFv phage (2-5×10^10) (1 h at RT) followed by mouse anti-M13 mAb (Serotec) (30 min on ice) and goat FITC-anti mouse (Pierce) (30 min on ice), or with purified scFv (1.25 to 40 μg/ml, routinely 10 to 15 μg/ml) (45 min on ice), followed by mouse anti-FLAG mAb M2 (Sigma) (30 min on ice) and goat FITC-anti mouse. Binding/washing buffer was TBS with or without divalent cations (1 mM Ca^2+, 1 mM Mg^2+, 0.2 mM Mn^2+). Alternatively, tumor cells were washed in 10 ml of plasma (prepared freshly from human blood anticoagulated with 50 nM D-Phe-D-Pro-D-arginyl chloromethyl ketone, PPACK, Felding-Habermann et al., J. Biol. Chem. 271: 5892-5900, 1996), resuspended in plasma and then incubated sequentially, without washing, with purified scFv (45 min on ice), followed by anti-FLAG M2 (30 min on ice) and FITC-anti mouse (30 min on ice). All samples were counter stained with propidium iodide (PI) and analyzed on a Becton-Dickinson FACScan, with live gate set to exclude PI positive cells.
To test this further, the effects of cation combinations on Bc-12 and Bc-15 binding were examined. […] Smith, Methods Cell Biol. 69: 247-259, 2002; Hughes et al., J. Biol. Chem. 271: 6571-6574, 1996. To confirm that scFv Bc-12 and Bc-15 selectively recognize αvβ3 in its activated form, binding of these antibodies to in vitro generated and in vivo selected variants of the MDA-MB 435 breast cancer cell model was tested. […] In contrast, Bc-12 and Bc-15 were able to bind an MDA-MB 435 variant expressing constitutively activated mutant αvβ3D723R, without exogenous stimulation with Mn^2+. […] Importantly, scFvs Bc-12 and Bc-15 recognized in vivo selected MDA-MB 435 variants from bone and lung metastases, as well as metastatic cells isolated from breast cancer patient blood samples (FIG. 1C). These cells express αvβ3 in a constitutively activated form. Felding-Habermann et al., Proc. Natl. Acad. Sci. U.S.A 98: 1853-1858, 2001; Rolli et al., Proc. Natl. Acad. Sci. U.S.A 100: 9482-9487, 2003.

[1] = tested on: human breast cancer cell lines, isolated from patient blood samples; test: Growth of breast cancer cell cultures in presence of scFv; type: cell-based; details: 2 μM scFv, 4 days after seeding

Molecule	recognition of in vivo selected MDA-MB 435 variants from bone and lung metastases (activated integrin αvβ3; constitutively activated αvβ3)	recognition of metastatic cells isolated from breast cancer patient blood samples (activated integrin αvβ3; constitutively activated αvβ3)	binding to MDA-MB 435 Parent Combo cells (activated integrin αvβ3; non-activated αvβ3)	binding to β3 wild type expressing MDA-MB 435 cells (activated integrin αvβ3; β3WT, non-activated αvβ3, without Mn^2+)	binding to β3 wild type expressing MDA-MB 435 cells with Mn2+ (activated integrin αvβ3; β3WT, with Mn^2+)	growth of breast cancer cell lines [1]	binding of RGE mutated scFv to human breast cancer cells (activated integrin αvβ3; BMS cells, compared with parent RGD scFv)
Bc-12: patient derived human scFv antibody against activated αvβ3 with RGD motif in CDR-H3; cDNA ATCC PTA-6303 (protein) scFv: MAQVQLVQSGAEVKKPGASVKVSCKASGYTFSNYGITWVRQAPGQGLEWMGWINNGNTHYAQKFQGRVTMTTDTSTSTAYMELRSLRSDDTAVYYCARDPRGDDEPYWGQGTLVTVSSGGGGSGGGGSGGGGSEIVLTQSPLSLPVTLGQPASISCRSSQNLVYSDGNTYLSWFQQRPGQSPRRLIYKVSNRDSGVPDRFSGSGSGTDFTLKISRVEAEDIGVYYCMQGTHWPPRTFGQGTKVEIKRGLGGLVDYKDDDDK	recognized	recognized	same Mn^2+ dependence	failed to bind	recognized when activated with Mn^2+	retarded	–
Mut-12: RGE containing mutant version of scFv Bc-12 (protein) MAQVQLVQSGAEVKKPGASVKVSCKASGYTFSNYGITWVRQAPGQGLEWMGWINNGNTHYAQKFQGRVTMTTDTSTSTAYMELRSLRSDDTAVYYCARDPRGEDEPYWGQGTLVTVSSGGGGSGGGGSGGGGSEIVLTQSPLSLPVTLGQPASISCRSSQNLVYSDGNTYLSWFQQRPGQSPRRLIYKVSNRDSGVPDRFSGSGSGTDFTLKISRVEAEDIGVYYCMQGTHWPPRTFGQGTKVEIKRGLGGLVDYKDDDDK	–	–	–	–	–	no effect	strongly reduced
